Two molecules from patent US20210388043A1 (IMMUNEONCO BIOPHARMACEUTICALS SHANGHAI, published 2021) can be followed below.

The test deals with T1, HY03M (human).
T1 construct: Homodimer; also called SIRPαD1-Fc (N89A)
In words: ELISA on coated FcγR; HY03M is the reference against which HY03MM was decreased (FIG. 9A).

T1 sequence (chain, as listed by the source limits assumed): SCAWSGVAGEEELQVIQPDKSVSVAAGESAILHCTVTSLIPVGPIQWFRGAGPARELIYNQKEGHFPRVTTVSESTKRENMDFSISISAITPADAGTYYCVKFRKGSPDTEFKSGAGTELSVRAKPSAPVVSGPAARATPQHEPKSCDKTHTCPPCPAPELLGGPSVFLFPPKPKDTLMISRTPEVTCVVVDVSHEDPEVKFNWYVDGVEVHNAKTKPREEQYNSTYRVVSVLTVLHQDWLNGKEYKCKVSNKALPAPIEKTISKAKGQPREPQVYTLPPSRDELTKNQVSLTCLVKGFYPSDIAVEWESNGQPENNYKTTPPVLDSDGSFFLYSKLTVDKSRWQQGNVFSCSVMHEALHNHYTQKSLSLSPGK
Method: The binding activities of proteins of the present invention to FcγRs were tested by ELISA as follows.
The plate was left in a refrigerator at 4° C. overnight. Immediately before the test, the plate was washed by 0.05% PBS-T and then blocked by 3% skim milk for 1 hour at room temperature. […] After incubated at room temperature for 1 hour, the liquids in the plate were discarded. […] The plate was incubated at room temperature for 1 hour and then washed by the washing solutions for 5 times. Thereafter, HRP substrates were added to the plate, and the plate was left for colorimetric reaction for 10 to 20 minutes in the dark. The colorimetric reaction was terminated later using 1 N H₂SO₄, and the OD450 value was obtained in a plate reader.

B1: CD32b (FcγRIIb) (receptor, UniProt P31994 46-217, looked up)
chain: APPKAVLKLEPQWINVLQEDSVTLTCRGTHSPESDSIQWFHNGNLIPTHTQPSYRFKANNNDSGEYTCQTGQTSLSDPVHLTVLSEWLVLQTPHLEFQEGETIVLRCHSWKDKPLVKVTFFQNGKSKKFSRSDPNFSIPQANHSHSGDYHCTGNIGYTLYSSKPVTITVQAP
notes: Bought recombinant protein coated on an ELISA plate
With B1, the binding result is on record as “binds”.

B2: CD64 (FcγRI) (receptor, UniProt P12314 16-288, looked up)
chain: QVDTTKAVITLQPPWVSVFQEETVTLHCEVLHLPGSSSTQWFLNGTATQTSTPSYRITSASVNDSGEYRCQRGLSGRSDPIQLEIHRGWLLLQVSSRVFTEGEPLALRCHAWKDKLVYNVLYYRNGKAFKFFHWNSNLTILKTNISHNGTYHCSGMGKHRYTSAGISVTVKELFPAPVLNASVTSPLLEGNLVTLSCETKLLLQRPGLQLYFSFYMGSKTLRGRNTSSEYQILTARREDSGLYWCEAATEDGNVLKRSPELELQVLGLQLPTP
notes: as for B1
On to B2, for which the binding result is given as “binds”.
